Assay results reported in the PETadex activity labels (doi:10.1016/j.enzmictec.2020.109715).

Legend:
pNP-C8 [1] = assay: Proxy for plastic degradation [Relative activity]; settings: part of the chain shown
PET = assay: Proxy for plastic degradation [Released monomer concentration (HPLC/LC-MS) (MHET+TPA+BHET)]; settings: pH 8, part of the chain shown
BHET = settings: pH 7; 40 °C; part of the chain shown
p-NP-C2 = settings: pH 7; 40 °C; part of the chain shown
p-NP-C4 = settings: pH 7; 40 °C; part of the chain shown
pNP-C8 [2] = assay: Proxy for plastic degradation [p-nitrophenol (pNP) release] (% relative activity); settings: part of the chain shown

B1: unnamed (protein)
chain: SNPYQRGPNPTRSALTADGPFSVATYTVSRLSVSGFGGGVIYYPTGTSLTFGGIAMSPGYTADASSLAWLGRRLASHGFVVLVINTNSRFDYPDSRASQLSAALNYLRTSSPSAVRARLDANRLAVAGHSMGGGGTLRIAEQNPSLKAAVPLTPWHTDKTFNTSVPVLIVGAEADTVAPVSQHAIPFYQNLPSTTPKVYVELDNASHFAPNSNNAAISVYTISWMKLWVDNDTRYRQFLCNVNDPALSDFRTNNRHCQ
pNP-C8 [1]; 5 °C
  Proxy for plastic degradation: 100%
pNP-C8 [1]; 30 °C
  Proxy for plastic degradation: 35%
pNP-C8 [1]; 35 °C
  Proxy for plastic degradation: 48%
pNP-C8 [1]; pH 3
  Proxy for plastic degradation: 0%
pNP-C8 [1]; pH 4
  Proxy for plastic degradation: 20%
pNP-C8 [1]; pH 5
  Proxy for plastic degradation: 70%
pNP-C8 [1]; pH 6
  Proxy for plastic degradation: 100%
pNP-C8 [1]; pH 7
  Proxy for plastic degradation: 100%
pNP-C8 [1]; pH 8
  Proxy for plastic degradation: 90%
pNP-C8 [1]; pH 9
  Proxy for plastic degradation: 55%
pNP-C8 [1]; pH 10
  Proxy for plastic degradation: 0%
PET; 30 °C
  Proxy for plastic degradation: 0 mM
PET; 40 °C
  Proxy for plastic degradation: 0.4 mM
PET; 50 °C
  Proxy for plastic degradation: 1.5 mM
PET; 60 °C
  Proxy for plastic degradation: 3.8 mM
PET; 70 °C
  Proxy for plastic degradation: 5.8 mM
PET; 80 °C
  Proxy for plastic degradation: 4 mM

B2: unnamed (protein)
chain: QSNPYQRGPNPTRSALTTDGPFSVATYSVSRLSVSGFGGGVIYYPTGTTLTFGGIAMSPGYTADASSLAWLGRRLASHGFVVIVINTNSRLDFPDSRASQLSAALNYLRTSSPSAVRARLDANRLAVAGHSMGGGATLRISEQIPTLKAGVPLTPWHTDKTFNTPVPQLIVGAEADTVAPVSQHAIPFYQNLPSTTPKVYVELDNATHFAPNSPNAAISVYTISWMKLWVDNDTRYRQFLCNVNDPALSDFRSNNRHCQ
BHET
  Km: 16800 µM
  kcat: 7.3 s⁻¹
  kcat/Km: 435 M⁻¹ s⁻¹
p-NP-C2
  Km: 1150 µM
  kcat: 131 s⁻¹
  kcat/Km: 114000 M⁻¹ s⁻¹
p-NP-C4
  Km: 300 µM
  kcat: 53.9 s⁻¹
  kcat/Km: 180000 M⁻¹ s⁻¹

B3: unnamed (protein)
chain: MNFPRASRLMQAAVLGGLMAVSAAATAQTNPYARGPNPTAASLEASAGPFTVRSFTVSRPSGYGAGTVYYPTNAGGTVGAIAIVPGYTARQSSIKWWGPRLASHGFVVITIDTNSTLDQPSSRSSQQMAALRQVASLNGTSSSPIYGKVDTARMGVMGWSMGGGGSLISAANNPSLKAAAPQAPWDSSTNFSSVTVPTLIFACENDSIAPVNSSALPIYDSMSRNAKQFLEINGGSHSCANSGNSNQALIGKKGVAWMKRFMDNDTRYSTFACENPNSTRVSDFRTANCS
pNP-C8 [2]; pH 3
  Proxy for plastic degradation: 10
pNP-C8 [2]; pH 4
  Proxy for plastic degradation: 17
pNP-C8 [2]; pH 5
  Proxy for plastic degradation: 62
pNP-C8 [2]; pH 6
  Proxy for plastic degradation: 94
pNP-C8 [2]; pH 7
  Proxy for plastic degradation: 98
pNP-C8 [2]; pH 8, 5 °C
  Proxy for plastic degradation: 100
pNP-C8 [2]; pH 8, 30 °C
  Proxy for plastic degradation: 80
pNP-C8 [2]; pH 8, 35 °C
  Proxy for plastic degradation: 100
pNP-C8 [2]; pH 8
  Proxy for plastic degradation: 100
pNP-C8 [2]; pH 9
  Proxy for plastic degradation: 96
pNP-C8 [2]; pH 10
  Proxy for plastic degradation: 69
